In patent US20150086555A1:

How the values were obtained:
Conditions in all cases: remark: other sources report otherwise
[1] = target: T1, recombinant soluble homotrimeric HA of A/Hong Kong/2108/03 (H9N2) (Influenza A virus A/HK/2108/2003(H9N2)); assay: trimeric HA microarray, transfection supernatant set 4
[2] = target: T2, recombinant soluble homotrimeric HA of A/Indonesia/5/05 (H5N1) (Influenza A virus A/Indonesia/5/2005(H5N1)); assay: trimeric HA microarray, transfection supernatant set 1
[3] = target: T3, recombinant soluble homotrimeric HA of A/Solomon Islands/3/06 (H1N1) (Influenza A virus A/Solomon Islands/3/2006(H1N1)); assay: as above
[4] = target: recombinant soluble homotrimeric HA of A/Hong Kong/1073/99 (H9N2) (Influenza A virus A/Hong Kong/1073/99 (H9N2)); assay: as above
[5] = target: recombinant soluble homotrimeric HA of A/northern shoveler/California/HKWF115/07 (H6) (Influenza A virus A/northern shoveler/California/HKWF115/2007(H6N1)); assay: as above
[6] = target: T1, recombinant soluble homotrimeric HA of …; assay: as above
[7] = target: recombinant soluble homotrimeric HA of A/South Carolina/1/18 (H1N1) (Influenza A virus A/South Carolina/1/18 (H1N1)); assay: as above
[8] = target: T4, recombinant soluble homotrimeric HA of A/Japan/305/57 (H2N2) (Influenza A virus A/Japan/305/1957(H2N2)); assay: as above
[9] = target: T5, recombinant soluble homotrimeric HA of A/chicken/Vietnam/NCVD-016/08 (H5N1) (Influenza A virus A/chicken/Vietnam/NCVD-016/2008(H5N1)); assay: as above
[10] = target: T6, recombinant soluble homotrimeric HA of A/Vietnam/1203/04 (H5N1) (Influenza A virus A/VietNam/1203/2004(H5N1)); assay: as above
[11] = target: recombinant soluble homotrimeric HA of A/California/4/09 (H1N1) (Influenza A virus A/California/04/2009(H1N1)); assay: as above
[12] = target: T7, recombinant soluble homotrimeric HA of A/Egypt/3300-NAMRU3/08 (H5N1) (Influenza A virus A/Egypt/3300-NAMRU3/2008(H5N1)); assay: as above
[13] = target: T8, recombinant soluble homotrimeric HA of A/Netherlands/219/03 (H7N7) (Influenza A virus A/Netherlands/219/03(H7N7)); assay: as above
[14] = target: T1, recombinant soluble homotrimeric HA of …; assay: trimeric HA microarray, transfection supernatant set 3
[15] = target: recombinant soluble homotrimeric HA of A/duck/Yangzhou/02/05 (H8N4) (Influenza A virus A/duck/Yangzhou/02/2005(H8N4)); assay: trimeric HA microarray, transfection supernatant set 1
[16] = target: T9, recombinant soluble homotrimeric HA of A/swine/Ontario/01911-2/99 (H4N6) (Influenza A virus A/Swine/Ontario/01911-2/99 (H4N6)); assay: as above
[17] = target: T10, recombinant soluble homotrimeric HA of A/Wisconsin/67/05 (H3N2) (Influenza A virus A/Wisconsin/67/2005(H3N2)); assay: as above
[18] = target: T2, recombinant soluble homotrimeric HA of …; assay: HA microarray, control antibody
[19] = target: T3, recombinant soluble homotrimeric HA of …; assay: HA microarray, control antibody
[20] = target: T9, recombinant soluble homotrimeric HA of …; assay: HA microarray, control antibody
[21] = target: T10, recombinant soluble homotrimeric HA of …; assay: HA microarray, control antibody
[22] = target: recombinant soluble homotrimeric HA of A/Anhui/1/05 (H5N1) (Influenza A virus A/Anhui/1/2005(H5N1)); assay: HA microarray, control antibody
[23] = target: T4, recombinant soluble homotrimeric HA of …; assay: HA microarray, control antibody
[24] = target: T5, recombinant soluble homotrimeric HA of …; assay: HA microarray, control antibody
[25] = target: T6, recombinant soluble homotrimeric HA of …; assay: HA microarray, control antibody
[26] = target: T7, recombinant soluble homotrimeric HA of …; assay: HA microarray, control antibody
[27] = target: T8, recombinant soluble homotrimeric HA of …; assay: HA microarray, control antibody

B1: TCN-534 (5249_B02) (antibody, V domains shown)
VH: QVQLVQSGAEVKKPGSSVKVSCRESGGTFNGYTITWVRQAPGQGLEWMGGIIPMMGTVNYAQKLQGRVTITTDYFTKTAYMDLNNLRSEDTAMYYCVKIRYTGQQLLWGQGTLVTVSS
VL: DIQMTQSPSTLSASIGDRVTITCRASQSIASWLAWYQQKPGKAPKLLIYEAVNLESGVPSRFSGSGSGTDFTLTISSLQPDDFATYFCQHYGTISQTFGGGTKVEIK
Trimeric HA Binding: RLU [1]: 27 RLU

B2: TCN-523 (5248_A17) (antibody, V domains shown)
VH: QVQLVQSGAEVKKPGSSVKVSCKASGGSFSNYAFSWVRQAPGQGLEWMGGTIPLLGTTNYAQKFQGRVTISADQFTSTAYMELGSLRSEDTAVYYCTRRKMTTAFDSWGQGTLVTVSS
VL: QPVLTQPPSASASLGASVTLTCTLSSAYSNYKVDWYQQRPGKGPRFVMRVGTGGIVGSKGDGIPDRFSVLGSGLNRYLTIKNIQEEDESDYHCGADHGSGSNFVSPYVFGGGTKLTVL
Trimeric HA Binding: RLU [1]: 38 RLU
Trimeric HA Binding: RLU [2]: 18500 RLU
Trimeric HA Binding: RLU [3]: 6780 RLU
Trimeric HA Binding: RLU [4]: 21700 RLU
Trimeric HA Binding: RLU [5]: 9050 RLU
Trimeric HA Binding: RLU [6]: 41 RLU
Trimeric HA Binding: RLU [7]: 26400 RLU
Trimeric HA Binding: RLU [8]: 191 RLU
Trimeric HA Binding: RLU [9]: 10800 RLU
Trimeric HA Binding: RLU [10]: 80 RLU
Trimeric HA Binding: RLU [11]: 17700 RLU
Trimeric HA Binding: RLU [12]: 25500 RLU
Trimeric HA Binding: RLU [13]: 28 RLU
Trimeric HA Binding: RLU [14]: 51 RLU

B3: TCN-504 (3251_K17) (antibody, V domains shown)
VH: QVQLQESGPGLVKPSETLSLTCAVSGVSISNIDFYWGWIRQPPGKGLEWIGNIYYTGITFYNPSLSSRVAISIDTSKNQFSLTLTSVTAADTAMYYCARHYGDSEAINDAFDIWGQGTMLTVSS
VL: EIVMTQSPATLSVSPGERATLSCRASQSVGNSLAWYQQRPGQAPRLLIYGASTRATGIPPRFSGSGSGTEFTLTISSLQTEDFAVYYCQQYINWRPLSFGGGTKVEIK
Trimeric HA Binding: RLU [2]: 16600 RLU
Trimeric HA Binding: RLU [15]: 28900 RLU
Trimeric HA Binding: RLU [3]: 29800 RLU
Trimeric HA Binding: RLU [16]: 26500 RLU
Trimeric HA Binding: RLU [17]: 14300 RLU
Trimeric HA Binding: RLU [7]: 21500 RLU
Trimeric HA Binding: RLU [8]: 15100 RLU
Trimeric HA Binding: RLU [9]: 27800 RLU
Trimeric HA Binding: RLU [10]: 1300 RLU
Trimeric HA Binding: RLU [11]: 18300 RLU
Trimeric HA Binding: RLU [12]: 16100 RLU
Trimeric HA Binding: RLU [13]: 23800 RLU
Trimeric HA Binding: RLU [18]: 43300 RLU
Trimeric HA Binding: RLU [19]: 24100 RLU
Trimeric HA Binding: RLU [20]: 14700 RLU
Trimeric HA Binding: RLU [21]: 40500 RLU
Trimeric HA Binding: RLU [22]: 26200 RLU
Trimeric HA Binding: RLU [23]: 4090 RLU
Trimeric HA Binding: RLU [24]: 38500 RLU
Trimeric HA Binding: RLU [25]: 196 RLU
Trimeric HA Binding: RLU [26]: 44400 RLU
Trimeric HA Binding: RLU [27]: 47200 RLU
